Measurements published in the Human Domainome abundance scans (Beltran et al. 2025).
± gives the uncertainty stated by the source.

B1: Nucleolar transcription factor 1, residues 408 to 469; numbered along this chain, P17480 (parent)
chain: KRPVSAMFIFSEEKRRQLQEERPELSESELTRLLARMWNDLSEKKKAKYKAREAALKAQSER

Variants of: B1
Assay: abundance fitness (aPCA) (normalised: wild type 0, dead -1); higher = more abundant; growth selection in yeast, the domain comes from the species named
Details: Homo sapiens

Variant	abundance fitness
E13K	-0.106 ± 0.073
E13G	-0.22 ± 0.043
R62L	-0.094 ± 0.069
R62M	-0.019 ± 0.1
R62I	-0.055 ± 0.16
R62G	0.055 ± 0.033
R62Y	0.016 ± 0.12
R62F	-0.317 ± 0.34
R62P	-0.232 ± 0.081
E27N	-0.33 ± 0.19
E27M	-0.358 ± 0.085
E27Y	-0.108 ± 0.1
E27Q	-0.121 ± 0.12
V4F	-0.156 ± 0.078
V4C	-0.213 ± 0.08
V4Q	-0.099 ± 0.08
V4K	-0.053 ± 0.067
V4S	-0.082 ± 0.053
V4I	-0.018 ± 0.065
R22E	-0.194 ± 0.11
R22H	0.06 ± 0.11
A55W	-0.13 ± 0.064
A55H	0.003 ± 0.17
A55E	0.058 ± 0.073

Variant	abundance fitness
A55K	-0.054 ± 0.087
A55N	-0.141 ± 0.18
A55G	-0.046 ± 0.072
Q59A	-0.062 ± 0.052
Q59N	0.028 ± 0.15
Q59E	0.009 ± 0.064
L41C	-0.219 ± 0.093
L41I	-0.139 ± 0.11
L41H	-0.8 ± 0.13
L41F	-0.362 ± 0.14
L41W	-1.06 ± 0.074
L41V	-0.345 ± 0.042
P23K	-0.174 ± 0.062
P23I	-0.187 ± 0.09
P23H	-0.267 ± 0.1
P23Y	-0.402 ± 0.13
R36N	-0.023 ± 0.12
R36T	-0.037 ± 0.071
L18A	-0.167 ± 0.052
L18Y	-0.063 ± 0.1
L18D	-1.5 ± 0.23
A35N	-0.011 ± 0.14
A35V	-0.057 ± 0.047
A35L	-0.063 ± 0.038

Variant	abundance fitness
A35F	-0.176 ± 0.096
A35E	-0.009 ± 0.058
K46W	-0.736 ± 0.066
K46L	-0.453 ± 0.046
K46C	-0.537 ± 0.095
K46F	-0.785 ± 0.12
K46V	-0.3 ± 0.043
K46R	-0.069 ± 0.04
K46H	-0.662 ± 0.21
K14R	-0.034 ± 0.046
K14V	-0.07 ± 0.047
K14C	-0.319 ± 0.095
K14W	-0.167 ± 0.067
K14E	-0.229 ± 0.079
F10S	-0.648 ± 0.061
F10H	-0.258 ± 0.47
F10A	-0.829 ± 0.067
F10I	-0.948 ± 0.11
F10L	-0.731 ± 0.071
F10V	-1.09 ± 0.07
F10W	-0.075 ± 0.062
L33V	-0.067 ± 0.046
L33P	-1.22 ± 0.19
L33E	0.006 ± 0.089

Variant	abundance fitness
L33H	-0.02 ± 0.13
L33I	0.016 ± 0.088
A47T	-0.138 ± 0.11
A47I	-0.184 ± 0.15
A47C	-0.156 ± 0.13
S5W	-0.455 ± 0.052
S5T	-0.042 ± 0.057
S5C	-0.148 ± 0.15
S5N	0.047 ± 0.12
S5K	-0.041 ± 0.085
F8A	-0.092 ± 0.12
F8K	-0.004 ± 0.07
F8W	-0.03 ± 0.059
F8R	0.005 ± 0.045
K45Q	0.014 ± 0.058
K45H	-0.099 ± 0.11
K45G	-0.009 ± 0.044
K45E	0.067 ± 0.055
K45T	-0.067 ± 0.042
K45N	-0.064 ± 0.072
E29Y	-0.433 ± 0.096
E29W	-0.699 ± 0.069
E29K	-0.207 ± 0.079
E29G	-0.2 ± 0.041

Variant	abundance fitness
E29L	-0.304 ± 0.047
E29P	-1.14 ± 0.083
D40H	-0.257 ± 0.21
D40P	-0.911 ± 0.09
D40W	-0.319 ± 0.056
D40G	-0.094 ± 0.038
D40C	-0.213 ± 0.077
D40I	-0.763 ± 0.27
D40N	-0.265 ± 0.087
E20I	-0.114 ± 0.097
E20V	-0.055 ± 0.043
E20R	-0.012 ± 0.042
E20K	0.019 ± 0.074
E20F	-0.018 ± 0.098
E20G	-0.064 ± 0.037
L30S	-0.178 ± 0.069
L30Q	-0.032 ± 0.074
L30I	-0.171 ± 0.13
L30E	-0.227 ± 0.09
L30R	-0.108 ± 0.043
L30P	-1.1 ± 0.17
L30Y	-0.099 ± 0.095
Q19E	-0.067 ± 0.054
Q19W	-0.159 ± 0.043

Variant	abundance fitness
Q19C	-0.083 ± 0.063
S60V	-0.038 ± 0.059
S60P	-0.006 ± 0.056
S60I	-0.057 ± 0.11
S60T	-0.037 ± 0.066
S60Q	-0.036 ± 0.065
S60L	-0.062 ± 0.05
S60M	-0.113 ± 0.049
S60R	-0.059 ± 0.037
S60W	-0.049 ± 0.077
S60C	-0.028 ± 0.077
E24T	-0.123 ± 0.057
E24A	-0.114 ± 0.059
K57G	-0.073 ± 0.052
K57L	-0.07 ± 0.044
K57P	-0.087 ± 0.061
K57V	-0.085 ± 0.042
K57T	-0.059 ± 0.054
K57W	-0.146 ± 0.059
T31H	-0.074 ± 0.091
T31V	-0.131 ± 0.061
T31A	-0.043 ± 0.065
T31S	-0.02 ± 0.036
T31R	-0.07 ± 0.042

Variant	abundance fitness
T31Q	-0.045 ± 0.081
T31C	-0.143 ± 0.08
T31I	-0.25 ± 0.092
I9Q	-0.202 ± 0.14
I9K	-0.258 ± 0.089
I9R	-0.172 ± 0.046
I9F	-0.113 ± 0.15
I9V	-0.131 ± 0.058
I9H	-0.518 ± 0.38
I9Y	-0.181 ± 0.1
E43W	-0.276 ± 0.072
E43R	-0.329 ± 0.064
E43S	-0.213 ± 0.17
R2N	-0.003 ± 0.072
R2Y	0.01 ± 0.16
R2M	-0.13 ± 0.073
R2G	-0.204 ± 0.062
R2A	-0.151 ± 0.065
R2W	-0.453 ± 0.11
R2V	-0.049 ± 0.056
R2S	-0.072 ± 0.068
R2E	-0.132 ± 0.12
R2F	-0.043 ± 0.069
